Experimental findings from PMC5424706 (Molecular cell, 2017) are described below.

Experiment [1] deals with PhoP-HA protein, purified (Salmonella enterica serovar Typhimurium (strain 14028s)) (UniProt D0ZV90). Nature of the experiment: pull-down.
For experiment [2], the target named is T1, PhoP-HA protein, purified (Salmonella enterica serovar Typhimurium …, UniProt D0ZV90 1-224).
T1 sequence: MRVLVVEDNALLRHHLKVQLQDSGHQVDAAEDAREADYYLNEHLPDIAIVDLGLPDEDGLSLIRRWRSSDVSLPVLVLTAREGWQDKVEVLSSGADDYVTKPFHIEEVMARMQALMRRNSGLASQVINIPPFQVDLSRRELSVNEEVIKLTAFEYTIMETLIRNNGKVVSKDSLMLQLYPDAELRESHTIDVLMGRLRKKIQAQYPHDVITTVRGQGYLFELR
Nature of the experiment: pull-down.

Turning to “ClpS-FLAG, in vitro synthesized (natural protein)”, the IC50 in experiment [1] was 14.6 µM.

B1: MgtC-FLAG, in vitro synthesized (natural protein)
chain: MEERMLMFPYILNLLAAMLLGALIGAERQWRQRMAGLRTNALVATGAAVFILSSMTTSPDSPGRIAAQIVSGIGFLGAGVIMREGMNVRGLNTAATLWCSAGIGVLCGLGQFKNALAATIIILCANILLREAAQRINQLPISAEGEKRYILKVTCNKEDESAVRQWLLNIVKEAAICLQGLGSVPAQEQGYKEIRAELVGHADYRKTRELIISRIGDNDNITAIHWSIDSQ
Turning to B1, the IC50 in experiment [2] was determined as 8.4 µM.
